From patent publication US10215752 (MIT, dated 2019)
Where two headings read alike, the source gives them in different places.

B1: His-tag p16 (P42771) (other, human)
chain: MEPAAGSSMEPSADWLATAAARGRVEEVRALLEAGALPNAPNSYGRRPIQVMMMGSARVAELLLLHGAEPNCADPATLTRPVHDAAREGFLDTLVVLHRAGARLDVRDAWGRLPVDLAEELGHRDVARYLRAAAGGTRGSNHARIDAAEGPSDIPDHHHHHH
notes: Capture protein, expressed on the chip by cell-free synthesis with a His-tag
B2: His-tag CDK4 (P11802) (enzyme, human)
chain: MATSRYEPVAEIGVGAYGTVYKARDPHSGHFVALKSVRVPNGGGGGGGLPISTVREVALLRRLEAFEHPNVVRLMDVCATSRTDREIKVTLVFEHVDQDLRTYLDKAPPPGLPAETIKDLMRQFLRGLDFLHANCIVHRDLKPENILVTSGGTVKLADFGLARIYSYQMALTPVVVTLWYRAPEVLLQSTYATPVDMWSVGCIFAEMFRRKPLFCGNSEADQLGKIFDLIGLPPEDDWPRDVSLPRGAFPPRGPRPVQSVVPEMEESGAQLLLEMLTFNPHKRISAFRALQHSYLHKDEGNPEHHHHHH
notes: as for B1
B3: Jun (P05412) without His-tag (other, human, UniProt P05412 1-331, looked up)
chain: MTAKMETTFYDDALNASFLPSESGPYGYSNPKILKQSMTLNLADPVGSLKPHLRAKNSDLLTSPDVGLLKLASPELERLIIQSSNGHITTTPTPTQFLCPKNVTDEQEGFAEGFVRALAELHSQNTLPSVTSAAQPVNGAGMVAPAVASVAGGSGSGGFSASLHSEPPVYANLSNFNPGALSSGGGAPSYGAAGLAFPAQPQQQQQPPHHLPQQMPVQHPRLQALKEEPQTVPEMPGETPPLSPIDMESQERIKAERKRMRNRIAASKCRKRKLERIARLEEKVKTLKAQNSELASTANMLREQVAQLKQKVMNHVNSGCQLMLTQQLQTF
notes: also called Jun (noHis)
B4: p16 (P42771) without His-tag (other, human, UniProt P42771 1-156, looked up)
chain: MEPAAGSSMEPSADWLATAAARGRVEEVRALLEAGALPNAPNSYGRRPIQVMMMGSARVAELLLLHGAEPNCADPATLTRPVHDAAREGFLDTLVVLHRAGARLDVRDAWGRLPVDLAEELGHRDVARYLRAAAGGTRGSNHARIDAAEGPSDIPD
notes: also called p16 (noHis)
B5: His-tag Jun (P05412) (other, human)
chain: MTAKMETTFYDDALNASFLPSESGPYGYSNPKILKQSMTLNLADPVGSLKPHLRAKNSDLLTSPDVGLLKLASPELERLIIQSSNGHITTTPTPTQFLCPKNVTDEQEGFAEGFVRALAELHSQNTLPSVTSAAQPVNGAGMVAPAVASVAGGSGSGGFSASLHSEPPVYANLSNFNPGALSSGGGAPSYGAAGLAFPAQPQQQQQPPHHLPQQMPVQHPRLQALKEEPQTVPEMPGETPPLSPIDMESQERIKAERKRMRNRIAASKCRKRKLERIARLEEKVKTLKAQNSELASTANMLREQVAQLKQKVMNHVNSGCQLMLTQQLQTFHHHHHH
notes: as for B1
B6: CDK4 (P11802) without His-tag (enzyme, human, UniProt P11802 1-303, looked up)
chain: MATSRYEPVAEIGVGAYGTVYKARDPHSGHFVALKSVRVPNGGGGGGGLPISTVREVALLRRLEAFEHPNVVRLMDVCATSRTDREIKVTLVFEHVDQDLRTYLDKAPPPGLPAETIKDLMRQFLRGLDFLHANCIVHRDLKPENILVTSGGTVKLADFGLARIYSYQMALTPVVVTLWYRAPEVLLQSTYATPVDMWSVGCIFAEMFRRKPLFCGNSEADQLGKIFDLIGLPPEDDWPRDVSLPRGAFPPRGPRPVQSVVPEMEESGAQLLLEMLTFNPHKRISAFRALQHSYLHKDEGNPE
notes: also called CDK4 (noHis)

What was measured:
[1] = molecular target: T1, Fos (P01100) without His-tag (human, UniProt P01100 1-380); experiment: label-free nIR fluorescence (1045 nm) of SWNT/chitosan Ni-NTA array spots; His-tag capture protein expressed on the spot, then analyte protein without His-tag added; pair label = capture-analyte
T1 construct: also called Fos (noHis)

[2] = molecular target: B3; experiment: nIR fluorescence spectra (1000-1100 nm) of one SWNT/chitosan Ni-NTA array spot before expression, after the His-tag capture protein and after the analyte protein without His-tag; pair label = capture-analyte
[3] = molecular target: B3; experiment: label-free nIR fluorescence (1045 nm) of SWNT/chitosan Ni-NTA array spots; His-tag capture protein expressed on the spot, then analyte protein without His-tag added; pair label = capture-analyte
[4] = molecular target: T1, Fos (P01100) without His-tag; experiment: nIR fluorescence spectra (1000-1100 nm) of one SWNT/chitosan Ni-NTA array spot before expression, after the His-tag capture protein and after the analyte protein without His-tag; pair label = capture-analyte
His-tag Fos (P01100) [5] = molecular target: T2, His-tag Fos (P01100) (human, UniProt P01100 1-380); experiment: change of the Ni2+-SWNT distance on adding the analyte, calculated by the Förster equation from nIR fluorescence of the SWNT/chitosan Ni-NTA array
T2 construct: Capture protein, expressed on the chip by cell-free synthesis with a His-tag

His-tag CDK4 (P11802) = molecular target: B2; experiment: as above
His-tag Fos (P01100) [6] = molecular target: T2, His-tag Fos (P01100); experiment: nIR fluorescence spectra (1000-1100 nm) of one SWNT/chitosan Ni-NTA array spot before expression, after the His-tag capture protein and after the analyte protein without His-tag; pair label = capture-analyte
His-tag Jun (P05412) [7] = molecular target: B5; experiment: as above
[8] = molecular target: T1, Fos (P01100) without His-tag; experiment: label-free nIR fluorescence (1045 nm) of SWNT/chitosan Ni-NTA array spots; His-tag capture protein expressed on the spot, then cell-free expressed analyte protein without His-tag added; pair label = capture-analyte
His-tag p16 (P42771) = molecular target: B1; experiment: change of the Ni2+-SWNT distance on adding the analyte, calculated by the Förster equation from nIR fluorescence of the SWNT/chitosan Ni-NTA array
His-tag Jun (P05412) [9] = molecular target: B5; experiment: nIR fluorescence spectra (1000-1100 nm) of one SWNT/chitosan Ni-NTA array spot before expression, after the His-tag capture protein and after the analyte protein without His-tag; pair label = capture-analyte; remark: listed apart in the source
His-tag Fos (P01100) [10] = molecular target: T2, His-tag Fos (P01100); experiment: as above; remark: listed apart in the source

T2 sequence (P01100 other isoform, or with tags, fused parts or gaps limits assumed): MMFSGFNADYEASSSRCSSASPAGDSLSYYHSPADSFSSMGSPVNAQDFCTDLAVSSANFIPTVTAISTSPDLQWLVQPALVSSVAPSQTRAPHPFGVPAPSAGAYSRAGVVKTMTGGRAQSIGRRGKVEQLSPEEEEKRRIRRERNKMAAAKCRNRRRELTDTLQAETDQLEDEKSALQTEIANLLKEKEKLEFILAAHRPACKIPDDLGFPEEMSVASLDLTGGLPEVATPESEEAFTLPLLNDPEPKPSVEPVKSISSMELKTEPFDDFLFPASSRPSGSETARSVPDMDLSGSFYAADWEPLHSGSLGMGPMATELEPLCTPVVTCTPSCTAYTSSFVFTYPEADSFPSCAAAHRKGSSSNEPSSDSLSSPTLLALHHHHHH
T1 sequence (P01100 whole entry, one chain of several): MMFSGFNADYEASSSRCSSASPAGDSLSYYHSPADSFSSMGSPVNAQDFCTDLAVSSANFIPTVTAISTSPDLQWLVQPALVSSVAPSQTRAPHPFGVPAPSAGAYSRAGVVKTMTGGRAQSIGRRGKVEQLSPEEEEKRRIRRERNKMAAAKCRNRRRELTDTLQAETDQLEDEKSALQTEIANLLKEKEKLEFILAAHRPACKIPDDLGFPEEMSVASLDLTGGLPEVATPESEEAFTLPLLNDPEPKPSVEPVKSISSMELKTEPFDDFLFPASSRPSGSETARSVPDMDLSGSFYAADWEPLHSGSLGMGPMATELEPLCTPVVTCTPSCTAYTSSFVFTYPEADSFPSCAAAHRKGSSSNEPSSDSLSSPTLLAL

Binder: B1
binding result [1]: no binding | binding result [2]: no binding

Binder: B2
binding result [3]: no binding | binding result [4]: no binding

Binder: B3
Δd2 (His-tag Fos (P01100) [5]): 0.0236 nm

Binder: B4
Δd2 (His-tag CDK4 (P11802)): 0.0634 nm | binding result (His-tag Fos (P01100) [6]): no binding | binding result (His-tag Jun (P05412) [7]): no binding

Binder: B5
binding result [8]: binds

Binder: B6
Δd2 (His-tag p16 (P42771)): 0.0517 nm | binding result (His-tag Jun (P05412) [9]): no binding | binding result (His-tag Fos (P01100) [10]): no binding
